Results from the DeepSol protein solubility set.

test: soluble on expression in E. coli; label from the status in PepcDB or PDB records

Sequence | soluble on expression in E. coli
MSLVTKEREQIYILDGDIPFLAQRARLEANFTMEAKAHIQLFHQYFFNLPPDNDYIKWTVGKAMYMADGTALKQKQALDENGFYSDIISSSAVCTIMCDSIQFDEHERKFTYYGTQLIKRRTKDLKRSMITTGYIESVPRTRNNPHGLLITNWRTLENKDLDYEGHHHHHH | soluble
MGIKKKYGEGKMDIKPIRKKRVYQAIIEQIQQFIRQGQLKPGDKLPSERDLAEKFQVSRTTIKEAIAVMEAIGVLEIRPGVGTFVRETGNHFLDLNYIFGDDDTEIQELMEFRQAIEVEAAYYAAIRGTEDGKRKLTQLFSELEKEVMSGKLPAKSDFSFHMQISSMSQNALFLRIMEFISDKLFKSVTKNAVNTFAGAGDPVRVLQEHRAIYEAILSGDGVKARQAMRYHLESVIARYKGI | soluble
MGSDKIHHHHHHMSSEKLRVAAIDLGTNSFHMVIVEESEEKGIVEIDRVKDMICIGRGSISTKRLDDGAMEAGVATLRNFIVLATQRGVALHNILAFATSAIREADNRDEFIDMVRRETGLKIRVITGKEEAQFIYYGVRNAVTLRDKPDLLFDIGGGSVEFIIADKSKVHLLESRKIGVARMLERFVTTDPVSAHELHLLQQFFAAEMYGGAAEMAHELGVSRAIASSGTAQNIARMIRLGKHADGADVLNQSSFTRQEFESFYRQVIAMDASARRKLTGLDEKRVDLIVPGLILFDTIFRVFGIKDVVISDSALREGMVLHQIALIRGRDGSSQLDIRRQSVMELGYRCNWHKPHSEQVARLALMLFDELHPLHGLKERYRELLEYAAMLHNIGEFISISAHHKHSQYIIMNADLRGFSPTEIDIIGNVARYHRKQPPTERHPLYSQLKPSHRRVVDVLSGILRIANGLERGHRQNVQSITARIDQERIVLEALTQFEPDIELWAACGLKEWLEEVLGKPILIEARVR | not soluble
KVQTDPPSVPICDLYPNGVFPKGQECEYPPTQDGRTAAWRTTSEEKKALDQASEEIWNDFREAAEAHRQVRKYVMSWIKPGMTMIEICEKLEDCSRKLIKENGLNAGLAFPTGCSLNNCAAHYTPNAGDTTVLQYDDICKIDFGTHISGRIIDCAFTVTFNPKYDTLLKAVKDATNTGIKCAGIDVRLCDVGEAIQEVMESYEVEIDGKTYQVKPIRNLNGHSIGQYRIHAGKTVPIIKGGEATRMEEGEVYAIETFGSTGKGVVHDDMECSHYMKNFDVGHVPIRLPRTKHLLNVINENFGTLAFCRRWLDRLGESKYLMALKNLCDLGIVDPYPPLCDIKGSYTAQFEHTILLRPTCKEVVSRGDDY | soluble
YSLAVGGSSPFAEELMQELALTTEQLQVRAQEVLTEILNDYSSLRVKTIDSFFQEVMRAFSHELGLPGGFRIEMEQKAVLEQAVVRLLHSLGEKDTSDVENWIRRLAEDLIEEGRGHNIRREIVSLGDELFKEQLLLLSEEGKLPTKAAIHRYQTEMNKLMEGFEQRRLSIARRAEEIVATAGISFYDFKGGTKGGILEFAKVLKGGEVKPPTKTFMAMAEGDPETTLYAKTTPATTQAAILSAYQSGLKECLTEMATLYLGREWQEYSTAKQSLPFLNRLGIISDLWRQIEGIRQEENKMLISDAPSLLHRIIDGSETPFVYDK | not soluble
ANIIANTSLTIGPSKLDVAKITPELLASLNEVGGSEANVATGYHAIEFLLWGQDLNGTNAGAGKRAYTDFVVGSGCTNGHCDRRGEYLKAAADLLVQDLEWMEKQWSADEKGNYRQELLTGSAENGLRKMLFGMGSLSLGELAGERMKVALEANSTEDEHDCFSDNTHNSHYYNEQGIYNVYTGTYSRQDGTVLTGPSIANLVAQEDKKAAEEIQKQFDATRSQVGELVTSAEKHNQHFDQLIAAGNAQGNALVNDTIMALVAQTGAIERAAGIVGIDSLSPDTADHEF | not soluble
MSDAFLSSIKNRRTIYALDKQLPVSQEKIVELVKEAVSHSPSAFNSQSSRVVVLFGAEHEQFWNIAKDELKKIVPADAFAATETKLNSFAAGAGTVLFFEDQTVVRQLQEQFALYADNFPVWSEQASGMAQFAVWTALAEHKVGASLQHYNPLVDAQTHKTWNLPESWKLRAQMPFGAIAAPAGEKAFIAESERFKVFGN | not soluble
MEYRLFGQVTRALMDASQAPADDIATRIDALDWNRKVWSALATDCALPENQLPMELRASIISLSLWVGRHSSAVMRKEEDFEPLIEINRMIMQGLAGRADAA | not soluble
MKTGDKAGAIAAAQYFVEVIEYSMHTSTTDLLEKYSYEHCDRCSHYIEVINTRQEKNVLPKSVVINSSQEGHPEFRGEGAIIWRVPMHLQISEQWEAGKEPRKEEVKVSFSVAIDNGHWVLVGVGEED | not soluble
MQGKALQDFVIDKIDDLKGQDIIALDVQGKSSITDCMIICTGTSSRHVMSIADHVVQESRAAGLLPLGVEGENSADWIVVDLGDVIVHVMQEESRRLYELEKLWS | soluble
MCTGLALETKDGLHLFGRNMDIEYSFNQSIIFIPRNFKCVNKSNKKELTTKYAVLGMGTIFDDYPTFADGMNEKGLGCAGLNFPVYVSYSKEDIEGKTNIPVYNFLLWVLANFSSVEEVKEALKNANIVDIPISENIPNTTLHWMISDITGKSIVVEQTKEKLNVFDNNIGVLTNSPTFDWHVANLNQYVGLRYNQVPEFKLGDQSLTALGQGTGLVGLPGDFTPASRFIRVAFLRDAMIKNDKDSIDLIEFFHILNNVAMVRGSTRTVEEKSDLTQYTSCMCLEKGIYYYNTYENNQINAIDMNKENLDGNEIKTYKYNKTLSINHVN | soluble
MIPLCREHNKTCRVKVNYHWRVYNEDINKNAVLELSCQCQVLDQLRKTFVELGSSTIHSAADFEFSCITKDGPVVLSSGYEIYNNIRPELSFYHSQLPQLFLHVRILDVSVIAKLDDLGRTVNECKATMKSDKAWRVMKDTEIAEGQLSLQELLDKQQLEIKSLQKDISEMKLENQCRKKEDKNSFKNKEVHEASCDKCQDLIIGHRFKCAICYNYDLCETCEAAGVHAQHALIRLVSENTLFPEHLIVKNPEEVKDQNGQVQAIASSRDRAIQVPLRRLGITPQAIATKNNVSRYLNAQSDRNIIEDPWYAQHMSSRKPQTYERMHPKLKDTTDGKKVQKVSFRDRFYKKAESSLDKHEKQLRFDLSASRQEFIREKEKFRVEKETLMKQKEQIEEMMKQETINFETNRAFFSDRFEPIFNKVKDGKKSEDDTTRKVEFEVETAESNYPGSIFSDEDSLSDLAEILKDIEEYECSSESSDDQEKDDFDVVEEEAKQS | not soluble
SSKALLALKSQVEKRKAELQTQNRTKKWKRIGDQWKEEDKIQEQETFLEAHSPIESKQENGTETSNKEPPLLKEEVIERLRAWEQPATLFGETDYERYIRLRDLELRNSEESKGQRNIFQQKLRQFKEKDELENFYRVTEMELPSKGSAAQKVKEEIYAAEEGPEFFKTPEEYCFRYMRRLLKMWKAEVEQLDEETKRTSLGRKTLATFEQTKEYLKPLFRKLKKQQLDKSILTSLEKILRYVEQREYVLANDEYLRLAIGNAPWPVGATMVGIHARTAREKISEGKIAHVMNDEETRKYIQAVKRLITLSQKWYPTVPSKMVVG | soluble
MVGGGGVKFIEMDIRDKEAYELAKEWFDEVVVSIKFNEEVDKEKLREARKEYGKVAILLSNPKPSLVRDTVQKFKSYLIYVESNDLRVIRYSIEKGVDAIISPWVNRKDPGIDHVLAKLMVKKNVALGFSLRPLLYSNPYERANLLRFMMKAWKLVEKYKVRRFLTSSAQEKWDVRYPRDLISLGVVIGMEIPQAKASISMYPEIILKRLKY | soluble
MSTHEKLLTADNPVLHQRAKAMRQEMSEAEAKLWQHLRAGRLNGYKFRRQQPMGNYIVDFMCVTPKLIVEADGGQHAEQAVYDHARTAYLNSLGFTVLRFWNHEILQQTNDVLAEILRVLQELEKQYAQ | not soluble
TRELEDAQAMTEGERRKLASVIAYMTDGVIATNRNGAIILLNSPALELLNVSRETALEMPITSLLGLQENYTFEDLVEQQDSMLLEIERDDELTVLRVNFSVIQREHGKIDGLIAVIYDVT | not soluble
MSGRLIGKVALVSGGARGMGASHVRAMVAEGAKVVFGDILDEEGKAVAAELADAARYVHLDVTQPAQWTAAVDTAVTAFGGLHVLVNNAGILNIGTIEDYALTEWQRILDVNLTGVFLGIRAVVKPMKEAGRGSIINISSIEGLAGTVACHGYTATKFAVRGLTKSTALELGPSGIRVNSIHPGLVKTPMTDWVPEDIFQTALGRAAEPVEVSNLVVYLASDESSYSTGAEFVVDGGTVAGLAHNDFGAVEVSSQPEWVT | not soluble
TNVISTLDLNLLTKGGGSWNVDGVNMKKSAVTTFDGKRVVKAVYDKNSGTSANPGVGGFSFSAVPDGLNKNAITFAWEVFYPKGFDFARGGKHGGTFIGHGAASGYQHSKTGASNRIMWQEKGGVIDYIYPPSDLKQKIPGLDPEGHGIGFFQDDFKNALKYDVWNRIEIGTKMNTFKNGIPQLDGESYVIVNGKKEVLKRINWSRSPDLLISRFDWNTFFGGPLPSPKNQVAYFTNFQMKKYELEHHHHHH | soluble
MSLSTLLISAPHLAFKIIATGVSLPPDRVESSTLDRKLNKPVGYVEQRSGVRHRYHATADANQAELAAAALHDALERHGINPSSIDLLISASAIAYQALPCTAVHILKIAGLAPRIAGFDINSSCVSFISALQVAAGLLNAGTYQRIAIVSADLASRGIDWNDEESSLIFGDGAACAIVERGDGRSGILASLVEMYPTGSELCEIRAGGTRCNPRSGMDNDDFLFHMQGKRLFRQASGIIEDYFQRLLEKSGLTLADIATVIPHQASHLSLAHMRKRLHVPTDVLVDIYRDHGNQVAASIPTALHAAVMSGRFSPGKPVMLIGTAAGLTLAGMVLLEGHHHHHH | not soluble
MRSPDSDRPVHRMRALREAVSDADSHSRRGGRMIAREWQFALPEKKHKKKYFGNLKAEVIDAGLCCHCAACASICPVNGITAGDAPIDFPNWVKECVDCGACIKVCPRWEYTPKNGLGEYIEVVAARSKRFVGQDGAMVTEFTASALEMGIIERAIFVARDSNWRTRVVTIKTPEQLYDRKITGTKYSYADVLPALKEAVLKSEAVGFVGTPCMVSAVRKMQQAFKKFERVKLAIGLFCTENFYHHDLYKFLLEKANADLRNAVKTDIKKGKFIVEMKDGSKVRIPVKDFEEIIPSGCKVCQDFAAVESDVSVGSVGSPNRFSTVMVRTEVAKQILDYIREKDYAEFGEAKLDIVQKLCDHKMKIHPWPPKKKEEKSEELEHHHHHH | soluble
MRTLLIRYILWRNDGDPSYYNDDFKKLILFDELVDDDDVCTLIKNMRMTLSDGPLLDRLNQPVNNVEDVKRMIAISAKVARDIGRRSEIRWEDSFTILFRMIEKYFDDLMTDLYGEK | not soluble
MSGQSLTDRITAAQHSVTGSAVSKTVCKATTHEIMGPKKKHLDYLIQCTNEMNVNIPQLADSLFERTTNSSWVVVFKSLITTHHLMVYGNERFIQYLASRNTLFNLSNFLDKSGLQGYDMSTFIRRYSRYLNEKAVSYRQVAFDFTKVKRGADGVMRTMNTEKLLKTVPIIQNQMDALLDFNVNSNELTNGVINAAFMLLFKDAIRLFAAYNEGIINLLEKYFDMKKNQCKEGLDIYKKFLTRMTRISEFLKVAEQVGIDRGDIPDLSQAPSSLLDALEQHLASLEGKK | soluble
